Data on one substance can be found in paper PMC2824606.

For orientation: Kd means the free concentration of one partner at which half of the binding sites on the other are occupied at equilibrium, for simple one-to-one binding.

The target in this test is yHsp90-Y24F, bacterially expressed and purified (N-terminally His6-tagged, pRSETA) (Saccharomyces cerevisiae) (UniProt P02829). Description: ITC. (In general: ITC needs no label: the signal is the heat of the interaction.)

“Aha1 used for the in vitro binding constants (from UniProt Q12449 1-350) (natural protein)” yielded a Kd of 1800 nM. This counts as single-digit micromolar.
